Data from US20200129582A1, “NOVEL PEPTIDES AND PEPTIDOMIMETICS” (UNIVERSITY OF AUCKLAND, priority 2016, published 2020).
Residues, ends and D or L forms follow the SMILES beside them.

Key:
[1] = biological target: T1, coupled gap junction channels in hCMVEC cells (Homo sapiens, UniProt P17302); type: cell-based; settings: hCMVEC, 100 μM, FIG. 5
T1 construct: A confluent monolayer of hCMVECs was pre-incubated in Peptide5; endogenous in cells; host or cells: hCMVEC
Experimental: (§1) The hCMVEC cells were plated in 1 μg/cm^2 collagen I (Gibco) 12-well plate at a density of 0.4×10^6 cells per well, and cultured overnight. A confluent monolayer of hCMVECs was pre-incubated in Peptide5 (5-100 μM) dissolved in culture medium for 2 hours or 24 hours. CBX at a concentration of 100 μM was used as a positive control. Cells were washed three times with phosphate buffered saline (PBS) without Ca^2+ or Mg^2+. The cells were then incubated in 0.05% Lucifer Yellow (LY) (Sigma), a fluorescent dye that is transferred through coupled gap junction channels (el-Fouly et al., 1987, Experimental cell research 168:422-430), +/−Peptide5 dissolved in PBS, and scrape-wounded with a size 10 carbon steel surgical blade (Swann-Morton, England). Following 5-minute incubation at 37° C. in 95% O2 and 5% CO2 without light, the 0.05% LY solution was removed. Cells were rinsed four times with PBS with Ca^2+ or Mg^2+, and then fixed in 4% paraformaldehyde (PFA) in PBS at pH 7.4 for 10 minutes at room temperature. Cells were then washed 3 times in PBS to remove PFA before fluorescent imaging. Fluorescent images were visualised using a Nikon TE2000E inverted fluorescent microscope (10× magnification, 0.3 numerical aperture), and captured using a Digital Sight CCD camera and Eclipse Net software (Nikon). Three images within each well from three independent experiments were taken for analysis and the total number of cells showing dye uptake from those that had been loaded were counted manually by masked observers.
as §1, with “1987),” for “1987, Experimental cell research 168:422-430),”

Solubility in miliQ H2O = type: physicochemical
Experimental: For cell scrape load—dye coupling assays of gap junctions, induced protein distribution changes and ATP release studies of hemichannel block, Connexin43 mimetic peptide (Peptide5, sequence VDCFLSRPTEKT (SEQ ID NO: 45)) (Auspep, Australia) was synthesized at purity >95% and dissolved in miliQ H2O at a stock concentration of 10 mM. For competition assays extracellular loop matching peptides were custom synthesised and dissolved in miliQ H2O at a stock concentration of 1 mM according to purity supplied by the manufacturer (Auspep, Australia). For Peptide5 sequence substitution studies, peptides were generated in the School of Chemical Sciences, University of Auckland. The peptides were prepared using Fmoc solid phase synthesis. Fmoc-Thr(tBu)-OH or Fmoc-Ala-OH pre-loaded to the HMPP linker and attached to in-house prepared aminomethyl PS resin 2.1 (using DIC in DMF). This was followed by alternating de-protection and coupling reactions using 5% piperazine containing 0.1 M 6-Cl-HOBt and HBTU and NMM respectively via automated Tribute Fmoc-SPPS. Resin cleavage using TFA afforded crude products, which underwent purification via semi-preparative RP-HPLC. Peptides were obtained in high purity (>95%) and with good yields (17%-46%). All alanine substituted analogues were miliQ H2O soluble (Table 5).
Peptide5 interacting site on the Connexin43 protein was determined using a competition assay. […]

[2] = biological target: T2, hemichannel-mediated ATP release from hCMVEC cells (Homo sapiens, UniProt P17302); assay: In vitro ischemia injury ATP release assay (single alanine substituted and truncated peptides); type: cell-based
T2 construct: endogenous in cells; host or cells: hCMVEC (human cerebral microvascular endothelial cells)
Experimental: The human cerebral endothelial cells (hCMVEC) were plated at a density of 0.025×10^6 cells per well in a collagen-coated 12-well plate (1 μg/cm^2) a day prior to the experiment. Cells were incubated in culture medium overnight. Hypoxic, acidic, ion-shifted Ringer injury solution that mimics ionic concentrations and acid-base shifts of the interstitial space in hypoxic-ischemic brains (Bondarenko and Chesler, 2001, […]) was used to trigger hemichannel opening. The injury solution contained (in mM): 38 NaCl, 13 NaHCO3, 3 Na-gluconate, 65 K-gluconate, 38 NMDG-Cl, 1 NaH2PO4, and 1.5 MgCl2. The injury solution was bubbled in 95% N2, 5% CO2 gas (20 L/min) for 5 minutes and pH adjusted to 6.6 before use. The standard ringer solution contained (in mM): 124 NaCl, 3 KCl, 26 NaHCO3, 26 NaHCO3, 1 NaH2PO4, 1.3 CaCl2, 1.5 MgCl2, and 10 Glucose, and pH adjusted to 7.4 before use (Bondarenko and Chesler, 2001). In the ischemia injury model, hCMVEC cells were incubated for 2 hours in 500 μL injury solution+/−Peptide5 (100 μM) (O'Carroll et al., 2008, Cell communication & adhesion 15:27-42; Danesh-Meyer et al., 2012, Brain: a journal of neurology 135:506-520; Davidson et al., 2012, Annals of neurology 71:121-132; Davidson et al., 2013, Experimental neurology 248:301-308; Davidson et al., 2014, PloS one 9:e96558; Davidson et al., 2015, J Cereb Blood Flow Metab), or +/−extracellular loop sequences (Table 5), or modified peptides (Table 2, 3) dissolved in injury solution (500 μL) with a final concentration of 100 μM. For negative control, hCMVEC cells were incubated only in 500 μL standard ringer solution for 2 hours. For positive control, hCMVEC cells were incubated only in 500 μL […] for 2 hours. All incubations were conducted at 37° C. in 95% O2 and 5% CO2. At the end of each experiment, samples were removed and immediately placed on ice. The concentration of ATP in the samples was determined using a Luciferin/luciferase bioluminescence reaction (ATP Determination Kit, Molecular Probes) and detected using a luminescence plate reader (VICTOR X, Perkin Elmer #2030-0010). Standard curves were generated in each experiment from an ATP standard (0 to 500 nM) to convert bioluminescence units to ATP concentration. […] The data is presented as mean±standard error relative to the injury or injury-reperfusion positive control. Statistically significant differences between samples were tested using one-way analysis of variance and Tukey's multiple comparisons test.
Peptides listed in table 5 and 2 were assessed using the ischemia injury model in hCMVEC cells as described above, and the medium was collected for ATP release measurement.
The human cerebral endothelial cells (hCMVEC) were plated at a density of 0.025×10^6 cells per well in a collagen-coated 12-well plate (1 μg/cm^2) a day prior to the experiment. Cells were incubated in culture medium overnight. Hypoxic, acidic, ion-shifted Ringer injury solution that mimics ionic concentrations and acid-base shifts of the interstitial space in hypoxic-ischemic brains (Bondarenko and Chesler, 2001) was used to trigger hemichannel opening. The injury solution contained (in mM): 38 NaCl, 13 NaHCO3, 3 Na-gluconate, 65 K-gluconate, 38 NMDG-Cl, 1 NaH2PO4, and 1.5 MgCl2. The injury solution was bubbled in 95% N2, 5% CO2 gas (20 L/min) for 5 minutes and pH adjusted to 6.6 before use. The standard ringer solution contained (in mM): 124 NaCl, 3 KCl, 26 NaHCO3, 26 NaHCO3, 1 NaH2PO4, 1.3 CaCl2, 1.5 MgCl2, and 10 Glucose, and pH adjusted to 7.4 before use (Bondarenko and Chesler, 2001).

[3] = biological target: T3, Connexin43 plaques in ARPE-19 cells (Homo sapiens, UniProt P17302); assay: Immunocytochemistry and quantification of Cx43 plaques; type: cell-based; settings: 2- or 6-hour treatment, Peptide5 50-500 μM, LaCl3 and CBX 500 μM
T3 construct: a cell line with high endogenous expression of connexin43; endogenous in cells; host or cells: ARPE-19
Experimental: (§2) ARPE-19 cells were grown until confluent in 8-well glass chamber-slides (BD Falcon). Confluent monolayers of ARPE-19 cells were incubated at a final concentration of 50 to 500 μM Peptide5, 500 μM LaCl3 and 500 μM CBX in culture medium for 2 or 6 hours. Cells were fixed in 4% PFA (ProSciTech) at pH 7.4 for 10 min at room temperature, permeabilized with 0.05% Triton-X100 in PBS, and incubated in 10% normal goat serum to block non-specific labelling. Cells were rinsed three times with PBS containing 0.1 mM CaCl2 between each fixation, permeabilization, and blocking steps. Connexin43 polyclonal rabbit antibody (C6219, Sigma, 1:2000) was applied overnight, followed by a goat anti-rabbit Alexa Fluor® 568 secondary antibody (Invitrogen, 1:200) for 45 minutes. Nuclei were counterstained with DAPI (Invitrogen) at 10,000-fold dilution for 5 mins, and mounted with Citifluor™ mounting medium. Images were visualised and captured using an oil immersion lens (60× magnification, 1.35 numerical aperture) on an Olympus FV1000 upright confocal laser scanning microscope and Olympus FV10-ASW 4.0 software. The Transfluor feature in MetaXpress® Image acquisition and analysis software (Version 5.3.0.1, Molecular Devices) was used to quantify the total area of Connexin43 plaques per image.
as §2

T2 sequence (P17302 2-382 limits assumed): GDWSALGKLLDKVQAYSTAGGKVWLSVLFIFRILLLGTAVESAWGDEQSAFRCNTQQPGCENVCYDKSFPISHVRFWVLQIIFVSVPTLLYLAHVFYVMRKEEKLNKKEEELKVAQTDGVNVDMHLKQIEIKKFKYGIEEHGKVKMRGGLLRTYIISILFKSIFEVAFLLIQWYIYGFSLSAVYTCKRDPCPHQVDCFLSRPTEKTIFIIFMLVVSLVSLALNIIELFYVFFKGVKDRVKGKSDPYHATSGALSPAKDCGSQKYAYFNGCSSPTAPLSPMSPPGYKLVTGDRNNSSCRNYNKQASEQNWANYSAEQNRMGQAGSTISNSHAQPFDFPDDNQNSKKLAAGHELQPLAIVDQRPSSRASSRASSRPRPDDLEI
T3 sequence (P17302 2-382 limits assumed): as above

RFKPSLCTTDEV [scrambled peptide]
LY dye transfer, comparison in words [1]: no significant difference

CC[C@H](C)[C@H](NC(=O)[C@H](Cc1ccc(O)cc1)NC(=O)[C@H](Cc1c[nH]c2ccccc12)NC(=O)[C@H](CCC(N)=O)NC(=O)[C@@H](NC(=O)[C@H](CC(C)C)NC(=O)[C@H](CC(C)C)NC(=O)[C@@H](N)Cc1ccccc1)[C@@H](C)CC)C(=O)N[C@@H](Cc1ccc(O)cc1)C(=O)NCC(=O)N[C@@H](Cc1ccccc1)C(=O)N[C@@H](CO)C(=O)N[C@@H](CC(C)C)C(=O)N[C@@H](CO)C(=O)N[C@@H](C)C(=O)N[C@H](C(=O)N[C@@H](Cc1ccc(O)cc1)C(=O)N[C@H](C(=O)N[C@@H](CS)C(=O)O)[C@@H](C)O)C(C)C [EL2a, FLLIQ WYIYG FSLSA VYTC] (H-FLLIQWYIYGFSLSAVYTC-OH; N-terminus and C-terminus assumed)
solubility in miliQ H2O (Solubility in miliQ H2O): soluble in miliQ H2O except for the EL2a sequence

SRPTEKT [mod-3]
ATP release compared to injury control (in words) ([2]; hCMVEC, 100 μM, FIG. 4): not significantly different to the injury control
ATP release compared to native Peptide5 (in words) ([2]; hCMVEC, 100 μM, FIG. 4): significantly greater ATP release
LY dye transfer, % of the untreated control ([1]; 2-hour exposure, untreated control 100±4.5%): 77.6±4.8%
LY dye transfer, comparison in words [1]: comparable to the native Peptide5

[Cl][La]([Cl])[Cl] [LaCl3, Lanthanum chloride, reference compound]
ATP release, % of the injury control [2]: 47.8±13.6%
ATP release compared to injury control (in words) ([2]; hCMVEC, 100 μM, FIG. 3): significantly reduced ATP release
Connexin43 labelling per cell compared to untreated control (in words) [3]: not significantly different to the control
